This note sets out measurements from patent publication US20150023971A1 (H LUNDBECK A S, published 2015).

The chains are these.
B1: Mature recombinant human BDNF (Promega #G1491) (ligand)
chain: HSDPARRGELSVCDSISEWVTAADKKTAVDMSGGTVTVLEKVPVSKGQLKQYFYETKCNPMGYTKEGCRGIDKRHWNSQCRTTQSYVRALTMDSKKRIGWRFIRIDTSCVCTLTIKRGR
notes: Bought protein; also called mature BDNF
B2: recombinant human p75 neurotrophin receptor/Fc chimera (R&D systems) (Fc fusion, UniProt P08138 29-250, looked up)
chain: KEACPTGLYTHSGECCKACNLGEGVAQPCGANQTVCEPCLDSVTFSDVVSATEPCKPCTECVGLQSMSAPCVEADDAVCRCAYGYYQDETTGRCEACRVCEAGSGLVFSCQDKQNTVCEECPDGTYSDEANHVDPCLPCTVCEDTERQLRECTRWADAECEEIPGRWITRSTPPEGSDSTAPSTQEPEAPPEQDLIASTVAGVVTTVMGSSQPVVTRGTTDN
notes: Bought from R&D systems; also called p75-IgG-Fc chimeric protein; p75^NTR; not shown: IgG Fc part of the bought chimera
B3: Mature murine NGF (Austral Biologicals) (ligand, mouse, UniProt P01139 122-241, looked up)
chain: SSTHPVFHMGEFSVCDSVSVWVGDKTTATDIKGKEVTVLAEVNINNSVFRQYFFETKCRASNPVESGCRGIDSKHWNSYCTTTHTFVKALTTDEKQAAWRFIRIDTACVCVLSRKATRRG
notes: mature; Bought protein

Assay [1] addresses T1, purified human Sortilin extracellular domain (produced in stably transfected CHO cells) (human, UniProt Q99523 78-755).
T1 construct: also called immobilized Sortilin
T1 sequence: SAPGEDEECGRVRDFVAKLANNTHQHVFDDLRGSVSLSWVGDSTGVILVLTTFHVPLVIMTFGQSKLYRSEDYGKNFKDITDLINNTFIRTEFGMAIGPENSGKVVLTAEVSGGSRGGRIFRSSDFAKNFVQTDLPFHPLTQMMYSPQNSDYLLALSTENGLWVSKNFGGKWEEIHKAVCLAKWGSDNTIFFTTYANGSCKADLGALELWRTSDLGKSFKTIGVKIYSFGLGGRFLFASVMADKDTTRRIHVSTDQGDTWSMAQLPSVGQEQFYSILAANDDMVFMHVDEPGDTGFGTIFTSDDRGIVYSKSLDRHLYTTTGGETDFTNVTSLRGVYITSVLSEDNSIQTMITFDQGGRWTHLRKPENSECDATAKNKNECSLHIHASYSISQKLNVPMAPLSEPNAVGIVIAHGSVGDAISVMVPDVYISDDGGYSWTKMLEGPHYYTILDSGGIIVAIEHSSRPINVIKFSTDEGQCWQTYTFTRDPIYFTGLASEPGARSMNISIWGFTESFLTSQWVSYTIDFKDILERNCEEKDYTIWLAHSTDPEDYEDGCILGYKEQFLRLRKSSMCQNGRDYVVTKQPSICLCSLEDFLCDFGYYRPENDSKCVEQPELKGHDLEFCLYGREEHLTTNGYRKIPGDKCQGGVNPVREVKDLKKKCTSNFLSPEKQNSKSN
Description: SPR (Biacore), immobilised Sortilin extracellular domain; other preparations of mature BDNF. For orientation: SPR reads the build-up and loss of mass on a sensor chip optically.

In assay [2] the target is T1, purified human Sortilin extracellular …. Description: SPR (Biacore), immobilised Sortilin extracellular domain (94 fmol/mm2); mature BDNF from Promega (#G1491), lower panel of FIG. 7.
The target of assay [3] is T2, Human recombinant proNGF (produced and purified in E. coli) (human, UniProt P01138 19-241).
T2 construct: Made as in Rattenholl et al 2001
Description: SPR (Biacore), 25-500 nM proNGF over immobilised p75-IgG-Fc.

The target in assay [4] is B2. Description: SPR (Biacore), 50-500 nM NGF over immobilised p75-IgG-Fc.
Assay [5] has as its target T1, purified human Sortilin extracellular …. Description: SPR (Biacore), NGF at 200 and 500 nM over immobilised Sortilin extracellular domain; the text gives ~8 nM for this pair.
Assay [6] deals with T3, recombinant human TrkA/Fc chimera (R&D systems) (human, UniProt P04629-2 33-407).
T3 construct: Bought from R&D systems; also called TrkA-IgG-Fc; not shown: IgG Fc part of the bought chimera
Description: SPR (Biacore), 50-500 nM NGF over immobilised TrkA-IgG-Fc.

The target in assay [7] is T1, purified human Sortilin extracellular …. Description: SPR (Biacore), 50-500 nM NGF over immobilised Sortilin extracellular domain.

T2 sequence (P01138 other isoform, or with tags, fused parts or gaps limits assumed): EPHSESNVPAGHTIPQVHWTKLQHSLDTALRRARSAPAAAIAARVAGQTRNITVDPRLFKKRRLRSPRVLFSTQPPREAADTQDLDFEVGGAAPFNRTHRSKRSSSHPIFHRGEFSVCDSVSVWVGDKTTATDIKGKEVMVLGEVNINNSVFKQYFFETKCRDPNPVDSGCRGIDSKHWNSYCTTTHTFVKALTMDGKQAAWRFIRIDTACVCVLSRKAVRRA
T3 sequence (P04629 other isoform, or with tags, fused parts or gaps mutant): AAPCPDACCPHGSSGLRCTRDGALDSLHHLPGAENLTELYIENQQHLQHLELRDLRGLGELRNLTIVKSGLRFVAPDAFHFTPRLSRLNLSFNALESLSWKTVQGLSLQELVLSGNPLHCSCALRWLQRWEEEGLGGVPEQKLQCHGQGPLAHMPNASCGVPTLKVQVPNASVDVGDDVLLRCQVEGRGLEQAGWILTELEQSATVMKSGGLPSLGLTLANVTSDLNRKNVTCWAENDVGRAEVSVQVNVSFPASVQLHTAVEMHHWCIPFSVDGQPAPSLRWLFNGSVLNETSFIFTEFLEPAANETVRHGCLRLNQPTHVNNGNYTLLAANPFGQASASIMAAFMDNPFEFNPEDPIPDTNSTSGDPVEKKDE

On to B1, for which the Kd in assay [1] was 10 nM; in assay [2], approximately 40 nM.

In the case of B2, the dissociation constant Kd in assay [3] is approximately 12 nM.

For B3, the Kd is approximately 1 nM in assay [4], approximately 87 nM in assay [5], approximately 2 nM in assay [6] and approximately 8 nM in assay [7].

For orientation: Kd means a measure of binding affinity in units of concentration.
